The supplement of paper PMC9942255

Tested on: Bacillus subtilis DB104 (SP-AmyQ fusion secretion)
Test: AmyQ secretion efficiency, weighted average sort bin (1 = best secretion, 10 = worst) (bin number (weighted average, 1-10)); higher = lower secretion efficiency
In short: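 B. subtilis DB104 library expressing mature AmyQ fused to designed signal peptides (amyE-integrated) was encapsulated at about 0.3 cells per ~65 nL alginate bead with fluorescein-starch, grown about 13 h at room temperature and nile red stained. Occupied beads were sorted by large-particle flow cytometry into 10 equally populated bins by green/red fluorescence ratio, and each bin's amplicons were Illumina-sequenced. Secretion score is the read-frequency-weighted average bin number, normalised to beads per bin, excluding low-abundance sequences.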

Row | Sequence | AmyQ secretion efficiency
1 | MLKKIALTLCPAIVGSLLFFTKPQASAHVS | 3.85
2 | MRKKRVITCVMAASLTLGSLLPAGYASGKED | 3.86
3 | MKKWMITIAMLILAGIALFVFISPYKSHKT | 6.74
4 | MKLKSKLLLSCLALSTVFVATTIGNAPTH | 7.24
5 | MKRLFMKASLVLFAVVFVFAVKGAGAKAETH | 1.83
6 | MPYLKRVLLLLVTGLFMSLFAVTATASYQTG | 1.77
7 | MKQGKFSSFLILLLMLTLVVAPKEKAEAASS | 2.33
8 | MNKKYFVLIVCIIFTSALFPTFSSCTAAQG | 1.18
9 | MKKRRIVSILFMFGLVMGFSQFQPSTVFAADK | 2.46
10 | MKRKRRKMACLILFSFTITTFINTETISAFSN | 2.31
11 | MNFKKTTSIVVSALSISALALSVSGVASAHEI | 3.35
12 | MKTKTGFIFSAILTLSIFAPNETFAQTA | 1.63
13 | MLTKRLLTIYIMLLGLIKKKRKKAQAEEK | 7.57
14 | MKKKKKRIITATTAVVLGSTLFAGAASAQSI | 1.46
15 | MMQIMIFLTSFMLLAMTGQTALAKDV | 4.32
16 | MKNMSCKLVVSVTLFFSFLTIGPLAHEQNS | 5.71
17 | MKKTIMSTYGVAALSTTAFGAHASAKEI | 8.21
18 | MGLGKKLSVAVAASFMSLSISLPGVQDAEG | 3.93
19 | MRNLTKTSLLLAGLCTAAQMVFVTHCSAEES | 2.79
20 | MKWMCKKCCKKVLLAGGAAQAEAV | 7.14
21 | MRPVFPLILSAVLFLSCFRASASKR | 6.81
22 | MPYLKRVLLLLVTGLFMSLFAVTATVSAQTG | 1.43
23 | MTMLRKIIGWILLLCIIPLFAFTVITSGKEV | 6.41
24 | MFKKHTISLLIIFLLASAVLAKPIEYHTV | 5.13
25 | MKKVMLATALFLGLTPAGVNAADL | 4.08
26 | MRSYIKVLTMCFLGLILFVPTTVVALADNS | 2.15

Row | Sequence | AmyQ secretion efficiency
27 | MRKKKRKLLLATSALTFSLSLVLPLDGHAKAQEV | 2.13
28 | MRIFKKAVFVIMISFLIATVNVNTAHAEDD | 3.86
29 | MKLSVKIAGVLTVAAAAMTAKMYATAAGD | 6.46
30 | MKKWRKRLIIAVSLAIAIVLFMYTKGEAKAAGM | 3.1
31 | MNLRKILLSSALSLGMLVVSAAPVLATSS | 1.4
32 | MKKWIYVVLVLSIAGIGGFSSHAASS | 6.17
33 | MKNMSCKLVVSVTLFFSFLTIGPLAHSQNS | 2.01
34 | MTKKAWFLPLVCVLLISGWLAPAASASEQTT | 1.79
35 | MKSCKQLIVCSLAAILLLRRKVSFAADS | 7.65
36 | MHLIRAAGAVCLAVVLIAGCRFNEDQAEGENT | 5.78
37 | MKWMCSICCAAVLLAGGAAQMEAV | 3.22
38 | MKNMSCKYQQGVTLFFSFLTIGPLAHAQNS | 6.89
39 | MRKKLKWLSFLLGFIILLFLFDEEEDDFSNNDS | 5.38
40 | MTTKFTALAVFLKEHTQASLL | 6.23
41 | MKKSMLAAAVLLSLGLVFGFSYGAGHVAEAKTK | 2.84
42 | MLKKKWMVGLLAGCLAAGTTSAAFTFFTGFSYNAFATEN | 7.04
43 | MKKRLIAPMLLSAASLAFFAMSGSRQAAAY | 6.03
44 | MTMLRKIIGWILLLCIIPLFAFTVIQSGKEV | 6.03
45 | MKRFILVLSFLSIIVLVTSASSFLAYPIQTNASPM | 5.04
46 | MKLRKVLTGSVLSLVSASPAFATSP | 3.59
47 | MRNLTKTSLLLAGLCTAAQMVFVTHASSEES | 4.13
48 | MRGKSAVLLSLIMLIAGFLIHFSFQM | 6.42
49 | MMKKLFHSTQGRQSFFSFFGVQPIHAKKQ | 7.5
50 | MKKKIRRRKAVSAVVGSSMAAAPAEAKTI | 5.54
51 | MKLAKRVSALTPSTTLAITAKADEE | 6.16
52 | MKRIRIPMTLALGAALTIAPLSFASGEEN | 3.92

Row | Sequence | AmyQ secretion efficiency
53 | MRKNRILALFVLSLGLLSFMVTPISAASK | 2.15
54 | MKQKRGRKACLILFSFTITTFINTETISAFSN | 3.84
55 | MKKWMITIAMRTLAGIALFVFISPLKSHKT | 7.06
56 | MPYLKRVLLLLVTGLFMSLFAVTATASTQTG | 1.44
57 | MKKAAAVLLSLGLVFGFSYGAGHVAEYKTK | 6.37
58 | MKWMCSICCAAVLLAGGAQQAEAV | 2.93
59 | MKKGIIRFRRKKFVLFFALSTGITGVQAAPA | 4.49
60 | MLKKIALTLCPAIVGSLLFFTAPASEHVS | 6.03
61 | MNLRKILLSSALSLGMLFSFAFVSAAPVLATSS | 2.03
62 | MKLAKRVSALTPSTTLAITAKSKEL | 7.27
63 | MKKGIIRFLLVSFVLFFALSTGITGVQAAPD | 2.73
64 | MKKKLAAGLTASAIVGTTLVEDEEDAEAATI | 6.91
65 | MRPVFPLILIAVLFLFCFSFGARQTEASASKR | 2.07
66 | MNKLKRLSMLTVMIASVFIFSASFFTSHALAAQY | 2.06
67 | MKKAAAVLLSLGLVFGFSYGAGHVVPTAAEAKTK | 4.57
68 | MKTKTLFIFSAILTLSIFAPNETFAQRR | 1.31
69 | MKVPKTMLLSTAAGLLLSLTATSVSAEEE | 2.6
70 | MRKTIFAFLTGLMMFKRRKKKASASPD | 7.76
71 | MPYLKRVRRRRVTGLFMSLFAVTATASAQTG | 2.37
72 | MKKRKQRPRLLSAASLAFFAMSGSAQAAAY | 6.55
73 | MKQGKFSVFLILLLMLTLVVAPKEKAEAASD | 1.02
74 | MKRRRSIFITCLLITLLTMGGMIASPASAAGT | 2.4
75 | MKLKSKLLLSCLALSTVFVATTIANAPRR | 6.72
76 | MRKKTKNRLISSVLSTVVISSLLFPQEAGASSK | 1.83
77 | MLMLLSTLLIGIMLLTFAPSAFAKQD | 4.38
78 | MMKLLAAGIIGLLTVSIASPSFAAEK | 2.05

Row | Sequence | AmyQ secretion efficiency
79 | MKLAKRVSALTPSTTLAITAKAAPL | 8.19
80 | MKRFSTAYLLLGILCSAAVFLIPQPGRALGAEV | 2.89
81 | MKKSQYFIVFICFFVLFSVHPIAAAEADS | 3.09
82 | MNLRKILLSSALSLGMLTLFFLSAVTVSAAPVLATSS | 1.71
83 | MKKRFSLKKRRGLLFGLTSPAFAAEK | 8.62
84 | MRPVFPLILSAVLFLSCFFGARQTEMSASKR | 3.55
85 | MKKKRLLAGALTATVLFGTCAVDVPGIISPKTAEAASQ | 1.66
86 | MKRTWNTCLTALLSVLLVAGSVPFHAEAKKP | 2.37
87 | MNLRKILLSSALSLGMLVSAAPVLLTSS | 7.26
88 | MKKQIITATTAVVLGSTLFAGAASYQSI | 6.33
89 | MKKWMITIAMLILAGIALFVFISPPPFFTAVPSTVLKSHKT | 6.23
90 | MAAQTDYKKQVVGILLSLAFVLFVFSRSERHE | 4.39
91 | MTKRITYSLLALLAVVAFAFTDSSKAKAAEA | 2.05
92 | MLKKIALTLCPAIVGSLLFFTAPTSAHVS | 3.63
93 | MKKQSYSATTAVVLGSTLFAGAASAQSI | 5.86
94 | MFKRGIQAFAGGIILATAVLAAVFYLTDEDQAAAV | 5.98
95 | MGLKKRVSMFLVALTMCGGLFVTPAKAVKT | 3.29
96 | MKVKKSALLLLLFAFEPSASGKKL | 7.2
97 | MRRYRKVLTMCFLGLILFVPTALADNS | 1.79
98 | MKKGIIRFLLVSFVLFFALSTGITGVQYAPA | 4.56
99 | MRKTIFAFLTGLMMFIFTSSGTITAASASPD | 1.89
100 | MKIRKILLSSALSFGMLISAVPALLAGT | 4.82
101 | MRKKTKNRLISSVLSTVVISSLLFAPGAAGASSK | 2.22
102 | MKRKSMSFSLSNLLSSLAISALSLGLLVSAPTASFAAES | 2.5
103 | MKRFSTAYLLLGILCSAAVFLIGAPSRALGAPV | 1.61
104 | MKKWLIIAVSLAIAIVLFMYTKGEAKAAED | 2.66

Row | Sequence | AmyQ secretion efficiency
105 | MLKKKWMVGLLAGCLAAGGFSYNRFATEN | 6.33
106 | MRPVFPLILSAVLFLSCFFGARQTEESASKR | 7.33
107 | MRKYTVIASILLSFLSVLESKAFPV | 4.71
108 | MKKFLVALTMCGGLFVTPAKAVKT | 3.65
109 | MRKYTVIASILLSFLSVLFGVAHESKAFPV | 3.89
110 | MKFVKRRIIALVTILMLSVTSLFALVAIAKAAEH | 4.46
111 | MRSYIKVLTMCFLGLILFVPTFLADNS | 5.95
112 | MFNRLFRVCFLAALIMAFEEEDDEVYAQKP | 4.05
113 | MKLWMRKTLRRLFTIVTFGLVSPPAALMADKP | 7.18
114 | MKNMSCKLVVSVTLFFSFLGGGPLAHAQNS | 1.53
115 | MKKVLMAFIICLSLILSVLAAPPSGPKAESV | 3.78
116 | MRHKIIGRYQTSSGQIIIGNMIGGGGGSEATSK | 7.7
117 | MKKKQQRLALTAAAGLGLTALHSAPAAKAAPL | 5.39
118 | MLKKIALTLCPAIVGSLLFFTAPRSAHVS | 5.22
119 | MRKKRVILAAFILVGSTLGAFSFSSDASAKHV | 2.62
120 | MKKRLIGFLVLVPALIMSGITLIEPNKK | 7.44
121 | MKRTWNRQRKVCLTALLSVLLVAGSVPFHAEAKKP | 2.09
122 | MTGLWRSLALCGLALTLAPCAQAAEP | 2.01
123 | MKKRLKRKRVLVPALIMSGITLIEANKK | 6.77
124 | MKLRKVLTGSVLSLGLLVSASPAFATSR | 1.56
125 | MKRLLVSLRVWMVFLMNWVTPDRKTAARAVY | 5.96
126 | MNFKKTVVSALSISALALVSVSGVASAHEI | 3.04
